The supplement of paper PMC11316812
± gives the standard deviation of the averaged measurements.

Columns and labels:
MCF7 = assay: percentage of EdU-negative (G0-arrested) nuclei per well, 72 h; higher = more G0 arrest; details: reference: sequence is the full UniProt precursor, the tested protein was the secreted form or ectodomain
hTERT-HMEC = assay: as above; details: reference: sequence is the full UniProt precursor, the tested protein was the secreted form or ectodomain
[1] = protein concentration 0.0225 µM
[2] = protein concentration 0.01525 µM
[3] = protein concentration 0.1525 µM
[4] = protein concentration 0.00725 µM
[5] = protein concentration 0.0725 µM
[6] = protein concentration 0.0293325 µM
[7] = protein concentration 0.293325 µM
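Note: secreted proteins added to cultured cells, EdU pulse at the end, nuclei found by Hoechst imaging, EdU status from nuclear versus surrounding ring intensity ratio, PBS as neutral control.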

Row | Sequence | percentage of EdU-negative (MCF7; [1]) [%] | percentage of EdU-negative (MCF7; protein concentration 0.225 µM) [%] | percentage of EdU-negative (hTERT-HMEC; [1]) [%] | percentage of EdU-negative (hTERT-HMEC; protein concentration 0.225 µM) [%] | also measured
1 | MPRYGASLRQSCPRSGREQGQDGTAGAPGLLWMGLVLALALALALALALSDSRVLWAPAEAHPLSPQGHPARLHRIVPRLRDVFGWGNLTCPICKGLFTAINLGLKKEPNVARVGSVAIKLCNLLKIAPPAVCQSIVHLFEDDMVEVWRRSVLSPSEACGLLLGSTCGHWDIFSSWNISLPTVPKPPPKPPSPPAPGAPVSRILFLTDLHWDHDYLEGTDPDCADPLCCRRGSGLPPASRPGAGYWGEYSKCDLPLRTLESLLSGLGPAGPFDMVYWTGDIPAHDVWHQTRQDQLRALTTVTALVRKFLGPVPVYPAVGNHESTPVNSFPPPFIEGNHSSRWLYEAMAKAWEPWLPAEALRTLRIGGFYALSPYPGLRLISLNMNFCSRENFWLLINSTDPAGQLQWLVGELQAAEDRGDKVHIIGHIPPGHCLKSWSWNYYRIVARYENTLAAQFFGHTHVDEFEVFYDEETLSRPLAVAFLAPSATTYIGLNPGYRVYQIDGNYSGSSHVVLDHETYILNLTQANIPGAIPHWQLLYRARETYGLPNTLPTAWHNLVYRMRGDMQLFQTFWFLYHKGHPPSEPCGTPCRLATLCAQLSARADSPALCRHLMPDGSLPEAQSLWPRPLFC | 24.3 ± 1.8 | 24.4 ± 1.7 | 4.79 ± 0.51 | 5.82 ± 1.2 | –
2 | MPRYVPLLLLLLLLRCSERGGGVNFGEKDAKVPGTWRDGVRVPGEGASWDSDRASPERRYGIVGLSQSISTKHPETSPKDSRIRENDVTADGRTTEDHITADPGTTEDSVTADPGTTEDNVTVDPGTTEGSVTADPATTKDYVSADPGTTKDSVTADPGTTENFVTADPGTTKDSITADPRTTEDSVTADPGTTKHSITVDPGTTEDSVTADPGTTKHSITADPGTTEDSVTADPGTTEDETTKHGDTHLL [E2RYF7] | 23.6 ± 2.3 | 24.8 ± 0.67 | 5.3 ± 1.4 | 5.54 ± 0.41 | –
3 | MPSLLVLTFSPCVLLGWALLAGGTGGGGVGGGGGGAGIGGGRQEREALPPQKIEVLVLLPQDDSYLFSLTRVRPAIEYALRSVEGNGTGRRLLPPGTRFQVAYEDSDCGNRALFSLVDRVAAARGAKPDLILGPVCEYAAAPVARLASHWDLPMLSAGALAAGFQHKDSEYSHLTRVAPAYAKMGEMMLALFRHHHWSRAALVYSDDKLERNCYFTLEGVHEVFQEEGLHTSIYSFDETKDLDLEDIVRNIQASERVVIMCASSDTIRSIMLVAHRHGMTSGDYAFFNIELFNSSSYGDGSWKRGDKHDFEAKQAYSSLQTVTLLRTVKPEFEKFSMEVKSSVEKQGLNMEDYVNMFVEGFHDAILLYVLALHEVLRAGYSKKDGGKIIQQTWNRTFEGIAGQVSIDANGDRYGDFSVIAMTDVEAGTQEVIGDYFGKEGRFEMRPNVKYPWGPLKLRIDENRIVEHTNSSPCKSSGGLEESAVTGIVVGALLGAGLLMAFYFFRKKYRITIERRTQQEESNLGKHRELREDSIRSHFSVA | 24.88 ± 0.14 | 24.5 ± 1 | 4.9 ± 0.22 | 6.51 ± 0.27 | –
4 | MPSSTAMAVGALSSSLLVTCCLMVALCSPSIPLEKLAQAPEQPGQEKREHASRDGPGRVNELGRPARDEGGSGRDWKSKSGRGLAGREPWSKLKQAWVSQGGGAKAGDLQVRPRGDTPQAEALAAAAQDAIGPELAPTPEPPEEYVYPDYRGKGCVDESGFVYAIGEKFAPGPSACPCLCTEEGPLCAQPECPRLHPRCIHVDTSQCCPQCKERKNYCEFRGKTYQTLEEFVVSPCERCRCEANGEVLCTVSACPQTECVDPVYEPDQCCPICKNGPNCFAETAVIPAGREVKTDECTICHCTYEEGTWRIERQAMCTRHECRQM [Q2TAL6] | – | – | – | – | percentage of EdU-negative (MCF7; [2]): 22.8 ± 3.1%; percentage of EdU-negative (MCF7; [3]): 25.17 ± 0.21%; percentage of EdU-negative (hTERT-HMEC; [2]): 5.49 ± 1.1%; percentage of EdU-negative (hTERT-HMEC; [3]): 7.17 ± 0.096%
5 | MPSWALFMVTSCLLLAPQNLAQVSSQDVSLLASDSEPLKCFSRTFEDLTCFWDEEEAAPSGTYQLLYAYPREKPRACPLSSQSMPHFGTRYVCQFPDQEEVRLFFPLHLWVKNVFLNQTRTQRVLFVDSVGLPAPPSIIKAMGGSQPGELQISWEEPAPEISDFLRYELRYGPRDPKNSTGPTVIQLIATETCCPALQRPHSASALDQSPCAQPTMPWQDGPKQTSPSREASALTAEGGSCLISGLQPGNSYWLQLRSEPDGISLGGSWGSWSLPVTVDLPGDAVALGLQCFTLDLKNVTCQWQQQDHASSQGFFYHSRARCCPRDRYPIWENCEEEEKTNPGLQTPQFSRCHFKSRNDSIIHILVEVTTAPGTVHSYLGSPFWIHQAVRLPTPNLHWREISSGHLELEWQHPSSWAAQETCYQLRYTGEGHQDWKVLEPPLGARGGTLELRPRSRYRLQLRARLNGPTYQGPWSSWSDPTRVETATETAWISLVTALHLVLGLSAVLGLLLLRWQFPAHYRRLRHALWPSLPDLHRVLGQYLRDTAALSPPKATVSDTCEEVEPSLLEILPKSSERTPLPLCSSQAQMDYRRLQPSCLGTMPLSVCPPMAESGSCCTTHIANHSYLPLSYWQQP | – | – | – | – | percentage of EdU-negative (MCF7; [4]): 25.4 ± 0.65%; percentage of EdU-negative (MCF7; [5]): 26.02 ± 0.25%; percentage of EdU-negative (hTERT-HMEC; [4]): 4.77 ± 0.37%; percentage of EdU-negative (hTERT-HMEC; [5]): 6.04 ± 0.21%
6 | MPVMRLFPCFLQLLAGLALPAVPPQQWALSAGNGSSEVEVVPFQEVWGRSYCRALERLVDVVSEYPSEVEHMFSPSCVSLLRCTGCCGDENLHCVPVETANVTMQLLKIRSGDRPSYVELTFSQHVRCECRHSPGRQSPDMPGDFRADAPSFLPPRRSLPMLFRMEWGCALTGSQSAVWPSSPVPEEIPRMHPGRNGKKQQRKPLREKMKPERCGDAVPRR | – | – | – | – | percentage of EdU-negative (MCF7; [6]): 24.4 ± 0.58%; percentage of EdU-negative (MCF7; [7]): 25.4 ± 0.6%; percentage of EdU-negative (hTERT-HMEC; [6]): 4.772 ± 0.0079%; percentage of EdU-negative (hTERT-HMEC; [7]): 5.02 ± 0.86%
7 | MPVPASWPHLPSPFLLMTLLLGRLTGVAGEDELQVIQPEKSVSVAAGESATLRCAMTSLIPVGPIMWFRGAGAGRELIYNQKEGHFPRVTTVSELTKRNNLDFSISISNITPADAGTYYCVKFRKGSPDDVEFKSGAGTELSVRAKPSAPVVSGPAVRATPEHTVSFTCESHGFSPRDITLKWFKNGNELSDFQTNVDPAGDSVSYSIHSTARVVLTRGDVHSQVICEIAHITLQGDPLRGTANLSEAIRVPPTLEVTQQPMRAENQANVTCQVSNFYPRGLQLTWLENGNVSRTETASTLIENKDGTYNWMSWLLVNTCAHRDDVVLTCQVEHDGQQAVSKSYALEISAHQKEHGSDITHEAALAPTAPLLVALLLGPKLLLVVGVSAIYICWKQKA | 24.1 ± 1.1 | 27 ± 1.5 | 5.34 ± 0.15 | 5.42 ± 0.66 | –
